Assays:
[1] = target: T1, CD3 on T cells / Jurkat cells (human, UniProt P07766 23-207; P04234 22-171; P09693 23-182); assay: FACS on Jurkat cells expressing CD3
T1 construct: whole, on cells; Native CD3 complex on CD3+ T cells isolated from normal donors or on Jurkat cells; also called human CD3; CD3+ T cells

CD20 on DoHH2 cells = target: T2, CD20 on DoHH2 cells (human, UniProt P11836 1-297); assay: FACS on DoHH2 cells expressing CD20 (FIG. 45E)
T2 construct: whole, on cells; Endogenous CD20 on the human DoHH2 cell line; also called DoHH2 cells expressing CD20
T2 sequence (looked up): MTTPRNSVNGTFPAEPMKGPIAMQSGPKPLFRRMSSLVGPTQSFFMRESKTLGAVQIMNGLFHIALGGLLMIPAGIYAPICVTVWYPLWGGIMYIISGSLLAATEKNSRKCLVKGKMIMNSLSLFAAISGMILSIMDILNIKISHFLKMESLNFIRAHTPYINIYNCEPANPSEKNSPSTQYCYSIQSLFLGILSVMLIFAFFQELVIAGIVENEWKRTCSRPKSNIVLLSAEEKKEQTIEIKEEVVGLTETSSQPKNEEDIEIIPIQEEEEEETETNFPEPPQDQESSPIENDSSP

T1 sequence (P07766 23-207, chain 1 of 3): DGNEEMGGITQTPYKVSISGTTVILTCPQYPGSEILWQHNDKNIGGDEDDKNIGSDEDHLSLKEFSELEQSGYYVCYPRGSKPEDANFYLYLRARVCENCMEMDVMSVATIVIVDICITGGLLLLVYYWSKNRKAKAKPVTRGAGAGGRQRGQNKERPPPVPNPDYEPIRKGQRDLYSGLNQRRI
T1 sequence (P04234 22-171, chain 2 of 3): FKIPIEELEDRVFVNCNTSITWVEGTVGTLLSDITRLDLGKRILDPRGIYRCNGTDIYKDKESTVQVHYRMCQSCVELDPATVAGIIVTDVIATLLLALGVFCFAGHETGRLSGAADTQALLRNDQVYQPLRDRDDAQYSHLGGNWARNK
T1 sequence (P09693 23-182, chain 3 of 3): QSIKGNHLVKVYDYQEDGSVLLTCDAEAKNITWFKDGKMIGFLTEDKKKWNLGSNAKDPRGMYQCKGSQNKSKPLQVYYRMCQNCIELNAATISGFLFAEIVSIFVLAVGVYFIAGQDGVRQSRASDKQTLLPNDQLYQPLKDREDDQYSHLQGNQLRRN

binding result [1]: binds
EC50 (CD20 on DoHH2 cells): 4.89 nM
B1: ATG201-N55S-200 (bispecific antibody, human IgG1, kappa, L234A L235A)
heavy 1: not shown
heavy 2: EVQLVESGGGLVQPGRSLRLSCAASGFTFNDYAMHWVRQAPGKGLEWVSTISWNSGSIGYADSVKGRFTISRDNAKKSLYLQMNSLRAEDTALYYCAKDIQYGNYYYGMDVWGQGTTVTVSSASTKGPSVFPLAPSSKSTSGGTAALGCLVKDYFPEPVTVSWNSGALTSGVHTFPAVLQSSGLYSLSSVVTVPSSSLGTQTYICNVNHKPSNTKVDKKVEPKSCGGGGSGGGGSEVQLVQSGAEVKKPGSSVKVSCKASGYTFSSYVIHWVRQAPGQCLEWMGYINPYSDVIKYNEKFKGRVTLTSDKSTSTAYMELSSLRSEDTAVYYCARDSYYSYDGFAYWGQGTLVTVSSGGGGSGGGGSGGGGSGGGGSEIVLTQSPDFQSVTPKEKVTITCSASSSVSYMHWYQQKPDQSPKRLIYDTSKLASGVPSRFSGSGSGTDFTLTINSLEAEDAATYYCQQWSSNPPTFGCGTKVEIKGGGGSGGGGSDKTHTCPPCPAPEAAGGPSVFLFPPKPKDTLMISRTPEVTCVVVDVSHEDPEVKFNWYVDGVEVHNAKTKPREEQYNSTYRVVSVLTVLHQDWLNGKEYKCKVSNKALPAPIEKTISKAKGQPREPQVCTLPPSREEMTKNQVSLSCAVKGFYPSDIAVEWESNGQPENNYKTTPPVLDSDGSFFLVSKLTVDKSRWQQGNVFSCSVMHEALHNHYTQKSLSLSPGK
light: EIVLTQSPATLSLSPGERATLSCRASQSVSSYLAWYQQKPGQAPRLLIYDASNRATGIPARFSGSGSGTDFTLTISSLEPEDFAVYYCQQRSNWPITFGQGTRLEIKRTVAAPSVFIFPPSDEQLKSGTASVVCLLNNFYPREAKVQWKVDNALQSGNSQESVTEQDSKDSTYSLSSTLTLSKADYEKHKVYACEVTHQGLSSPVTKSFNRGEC
notes: L234A/L235A; also called ATG201-N55S-20O

From patent US20260193348A1 (ANTENGENE BIOLOGICS, published 2026)
